Source: paper PMC11096006 (Immunity, 2024)

Target: Linear di-ubiquitin (UniProt P0CG48 1-76; P0CG48 1-76)
Test: crystal structure

- binding result: binds
B1: N4BP1 CUE-like domain (Q845-D893) (domain or fragment, UniProt Q6A037 845-893, looked up)
chain: QRSSAETSELREALLKIFPDSEQKLKIDQILAAHPYMKDLNALSALVLD
